Biological target: reduced RNase (reduced pancreatic RNase)

B1: bovine QSOX1 (quiescin Q6 sulfhydryl oxidase 1) isolated from milk (protein)
chain: SALYSSSDPLTLLRADTVRSTVLGSSSAWAVEFFASWCGHCIAFAPTWKALANDVKDWRPALNLAALDCAEETNSAVCRDFNIPGFPTVRFFKAFSKTGSGTTLSVAGADVQTLRERLIDALESHSDTWPPACPPLEPARLEEITGFFARNNEEYLALIFEKEGSYLGREVTLDLSQHQGIAVRRVLNTERDVVNRFGVTNFPSCYLLSRNGSFSRVPALTESRSFYTTYLRKFSGSTRGAVQTTAAPATTSAVAPTVWKVADRSKIYMADLESALHYILRIEVGKFSVLEGQRLVALKKFMAVLAKYFRGRPLVQNFLHSMNDWLKKQQRKKIPYGFFKNALDSRKEGTVIAEKVNWVGCQGSEPHFRGFPCSLWILFHFLTVQAAQEGVDHPQERAKAQEVLQAIRGYVRFFFGCRECAGHFEQMASGSMHRVGSLNSAVLWFWSSHNKVNARLAGAPSEDPQFPKVQWPPRELCSACHNELRGTPVWDLDNILKFLKTHFSPSNIVLDFPSAGPGPWR
Q: How did the KM turn out when B1 was run?
A: Its KM is 60 µM.

Q: What about the kcat (min^-1), thiols oxidized per minute of the same protein?
A: Its kcat (min^-1), thiols oxidized per minute is 1340 min⁻¹.

Q: And the kcat/KM?
A: Its kcat/KM is 374000 M⁻¹ s⁻¹.
